From the nanobody polyreactivity screen of Harvey et al. (2022)

Experiment: yeast display, Sf9 membrane polyspecificity reagent, FACS + sequencing; frameworks hold sequencing errors
Outline: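 In a synthetic yeast display library (Saccharomyces cerevisiae BJ5465), nanobody expression was induced with galactose for 36–48 hours. FACS gates were set low and high (top ~1%) using anti-HA fluorescence for expression and streptavidin fluorescence for binding of the Sf9 membrane reagent. Each polyreactivity label is drawn from the gate of origin.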
For “QVQLVESGGGLVQAGGSLRLSCAASGFTFLYYTMGWYRQAPGKERELVAAISSGGRTTYADSVKGRFTISRDNAKNTVYLQMNSLKQEDTAVYYCAARYRTLDGEVDYWGQGTQVTVSS”, the “polyreactivity (PSR sort gate)” value was “high polyreactivity”.
For “QVQLVESGGGLVQAGGSLRLSCAASGFTFNDYAMGWYRQAPGKERELVAAIDWSGGRTYYADSVKGRFTISRDNAKNTVYLQMNSLKPEDTAVYYCAAVLYSRLYLYRLDYWGQGTQVTVSS”, the “polyreactivity (PSR sort gate)” value was “low polyreactivity”.
For “QVQLVESGGGLVQAGGSLRLSCAASGFTFNFYAMRWYRQAPGKERELVAAITASGVRRYYADSVKGRFTISRDNAKNTVYLQMNSLKPEDTAVYYCNTYMYRNKSGYDYWGQGTQVTVSS”, the “polyreactivity (PSR sort gate)” value was “high polyreactivity”.
In the case of “QVQLVESGGGLVQAGGSLRLSCAASGFTFNKYAMGWYRQAPGKERELVAAISSSGGSTRYADSVKGRFTISRDNAKNTVYLQMNSLKPEDTAVYYCAVYVTRDSGWWLYDYWGQGTQVTVSS”, the “polyreactivity (PSR sort gate)” value is reported as “high polyreactivity”.
For “QVQLVESGGGLVQAGGSLRLSCAASGFTFNNNAMGWYRQAPGKERELVAAITSSGGSTRYADSVKGRFTISRDNAKNTVYLQMNSLKPEDTAVYYCNAARQRKYSNWYDYWGQGTQVTVSS”, the “polyreactivity (PSR sort gate)” value was “high polyreactivity”.
In the case of “QVQLVESGGGLVQAGGSLRLSCAASGFTFNNYAMGWYRQAPGKERELVAAISSGAGTYYADSVKGRFTISRDNAKNTVYLQMNSLKPEDTAVYYCNASLKYQGLTRITYRDDYWGQGTQVTVSS”, the “polyreactivity (PSR sort gate)” value is reported as “low polyreactivity”.
With “QVQLVESGGGLVQAGGSLRLSCAASGFTFNRNDMGWYRQAPGKERELVAAISTSGGRTYYADSVKGRFTISRDNAKNTVYLQMNSLKPEDTAVYYCAADGIYPVGVDYWGQGTQVTVSS” the “polyreactivity (PSR sort gate)” value was “high polyreactivity”.
In the case of “QVQLVESGGGLVQAGGSLRLSCAASGFTFNRTAMGWYRQAPGKERELVAAITRRGGSTYYADSVKGRFTISRDNAKNTVYLQMNSLKPEDTAVYYCAARRGAGDGYWGQGTQVTVSS”, the “polyreactivity (PSR sort gate)” value is reported as “high polyreactivity”.
For “QVQLVESGGGLVQAGGSLRLSCAASGFTFNRYAMGWYRQAPGKERELVAAISWSGTSTYYADSVKGRFTISRDNAKNTVYLQMNSLKQEDTAVYYCAARVKGQWNTYDYWGQGTQVTVTS”, the “polyreactivity (PSR sort gate)” value was “high polyreactivity”.
In the case of “QVQLVESGGGLVQAGGSLRLSCAASGFTFNRYAMGWYRQAPGKERELVATITSGGNTYYADSVKGRFTISRDNAKNTVYLQMNSLKPEDTAVYYCNKRGWYSVYRRDFWGQGTQVTVSS”, the “polyreactivity (PSR sort gate)” value is reported as “high polyreactivity”.
With “QVQLVESGGGLVQAGGSLRLSCAASGFTFNSYAMGWYRQAPGKERELVAAISSSGGRTYYADSVKGRFTISRDNAKNTVYFQMNSLKPEDTAVYYCNAVLVSYYSVGYDYWGQGSQVTVSS” the “polyreactivity (PSR sort gate)” value was “high polyreactivity”.
For “QVQLVESGGGLVQAGGSLRLSCAASGFTFNSYAMGWYRQAPGKERELVAAITSSGGRTYYADSVKGRFTISRDNAKNTVYLQMNSLKPEDTAVYYCAARRGGKVATIYDYWGQGTQVTVSS”, the “polyreactivity (PSR sort gate)” value was “low polyreactivity”.
In the case of “QVQLVESGGGLVQAGGSLRLSCAASGFTFNTNAMGWYRQAPGKERELVAAITSSGGSTYYADSVKGRFTISRDNAKNTVYLQMNSLKPEDTAVYYCNADVTLRLWAYYYYRYNYWGQGTQVTVSS”, the “polyreactivity (PSR sort gate)” value is reported as “low polyreactivity”.
In the case of “QVQLVESGGGLVQAGGSLRLSCAASGFTFNVYAMGWYRQAPGKERELVARITRRGGSTYYADSVKGRFTISRDNAKNTVYLQMNSLKPEDTAVYYCNADSPVVSGRGGRRSAYLNDYWGQGTKVTVSS”, the “polyreactivity (PSR sort gate)” value is reported as “high polyreactivity”.
For “QVQLVESGGGLVQAGGSLRLSCAASGFTFNWYAMGWYRQAPGKERELVAAINSSGGNTYYADSVKGRFTISRDNAKNTVYLQMNSLKPEDTAVYYCAALLWGYVAFDYWGQGTQVTVSS”, the “polyreactivity (PSR sort gate)” value was “high polyreactivity”.
In the case of “QVQLVESGGGLVQAGGSLRLSCAASGFTFNYNTMGWYRQAPGKERQLVAAISRSGGSTYYADSVKGRITISRDNAKNTVYLQMNSLKPEDTAVFYCAKDTYYPSSRYNRYYYWGQGTQVTVSS”, the “polyreactivity (PSR sort gate)” value is reported as “high polyreactivity”.
In the case of “QVQLVESGGGLVQAGGSLRLSCAASGFTFNYYAMGWYRQAPGKERELVAAISGRGGSTYYADSVKGRFTISRDNAKNTVYLQMNSLIPEDTAVYYCAADYWYDYYSTEYDYWGQGTQVTVSS”, the “polyreactivity (PSR sort gate)” value is reported as “low polyreactivity”.
In the case of “QVQLVESGGGLVQAGGSLRLSCAASGFTFPAYTMGWYRQAPGKERELVSAITSSGGNTYYADSVKGRFTISRDNAKNTVYLQMNSLKPEDTAVYYCSTVSVRGPSYDHVRYDYWGQGTQVTVSS”, the “polyreactivity (PSR sort gate)” value is reported as “low polyreactivity”.
In the case of “QVQLVESGGGLVQAGGSLRLSCAASGFTFPDYAMGWYRQAPGKERELVAAISSDGSTYYADSVKGRFTISRDNAKNTVYLQMNSLKPEDTAVYYCAAYVVWLYGYDYWGQGTKVTVSS”, the “polyreactivity (PSR sort gate)” value is reported as “low polyreactivity”.
In the case of “QVQLVESGGGLVQAGGSLRLSCAASGFTFPFYTMGWYRQAPGKERELVAAISRGGSTNYADSVKGRFTISRDNAKNTVYLQMNSLKPEDTAVSYCNKRYYRDLIGYYWGQGTQVTVSS”, the “polyreactivity (PSR sort gate)” value is reported as “high polyreactivity”.
For “QVQLVESGGGLVQAGGSLRLSCAASGFTFPIYAMGWYRQAPGKEREFVAAITRSGVSTYYADSVKGRFTISRDNAKNTVYLQMNSLKPEDTAVYYCAARYKGRAFWMDYWGQGTQVTVSS”, the “polyreactivity (PSR sort gate)” value was “high polyreactivity”.
For “QVQLVESGGGLVQAGGSLRLSCAASGFTFPNAMGWYRQAPGKERELVATISSSGGSTYYADSVKGRFTISRDNAKNTVYLQMNSLKPEDTAVYYCAARTRQYWIYRAYRDDYWGQGTQVTVSS”, the “polyreactivity (PSR sort gate)” value was “low polyreactivity”.
For “QVQLVESGGGLVQAGGSLRLSCAASGFTFPPYAMGWYIQAPGKERELVAGISWIGSSTYYADSVKGRFTISRDNAKNTVYLQMNSLKPEDTAVYYCNARYLLFAGGRRYYWGQGTQVTVSS”, the “polyreactivity (PSR sort gate)” value was “high polyreactivity”.
With “QVQLVESGGGLVQAGGSLRLSCAASGFTFPRYAMGWYRQAPGKERELVAAITVGGGRTYYADSVKGRFTISRDNAKNTVYLQMNSLKPEDTAVYYCAADSHASTYDYWGQGTQVTVSS” the “polyreactivity (PSR sort gate)” value was “low polyreactivity”.
With “QVQLVESGGGLVQAGGSLRLSCAASGFTFPRYAMGWYRQAPGKERELVAVITRRGGSTYYADSVKGRFTISRDNAKNTVYLQMNSLKPEDTAVYDCAASDPSNKSSRPGYSYDSDSWGQGTQVTVSS” the “polyreactivity (PSR sort gate)” value was “high polyreactivity”.
For “QVQLVESGGGLVQAGGSLRLSCAASGFTFPSYTMGWYRQAPGKERELVAAISWSGGRTYYADSVKGRFTISRDNAKITVYLQKNSLKPEETAVYYCAAGYRTGGDSGDYWGQGTQVTVSS”, the “polyreactivity (PSR sort gate)” value was “high polyreactivity”.
With “QVQLVESGGGLVQAGGSLRLSCAASGFTFPTYAMVWYRQAPGKERELVAAITRGGSTYYADSVKGRFTISRDNAKYTVYLQMNSLKPEDTAVYYCAADDPWYEEDYWGQGTQVTVSS” the “polyreactivity (PSR sort gate)” value was “low polyreactivity”.
With “QVQLVESGGGLVQAGGSLRLSCAASGFTFPWYAMGWYRQAPGKERELVASISYRGDSTYYADSVKGRFTISRDNAKNTVYLQMNSLKPEDTAVYYCNTRLASYYLPGFDYWGQGTQVTVSS” the “polyreactivity (PSR sort gate)” value was “low polyreactivity”.
For “QVQLVESGGGLVQAGGSLRLSCAASGFTFPYYAMGWYRQAPGKERELVAAISKSGGSTYFADSVKGRFTISRDNAKNTVYLQMNSLKPEDTAVYYCAAQGGSKYRGYYYWGQGTQVTVSS”, the “polyreactivity (PSR sort gate)” value was “high polyreactivity”.
In the case of “QVQLVESGGGLVQAGGSLRLSCAASGFTFPYYAMGWYRQAPVKERELVAAISYNGGSTYYADSVKGRFTISRDNAKNNVYLQMNSLKPEDTAVYYCNAVYYDSGVVGYYYWGQGTQVTVSS”, the “polyreactivity (PSR sort gate)” value is reported as “high polyreactivity”.
